{
  "source": "the RNAGym collection of RNA variant scans (doi:10.1073/pnas.2313332121)",
  "parents": {"B1": {"name": "TPR t1 (parent)", "chain": "GACCAAUCUGCCCUCAGAGCUCGAGAACAUCUUCGGAUGCAGAGGAGGCAGGCUUCGGUGGCGCGAUAGCGCCAACGUCCUCAACCUCCAAUGCAUCCCACCACAUGAUGAUGCCUGAAGAGCCUUGGUUUUUUG"}},
  "data": [
    {"variants_of": "B1", "assay": "polymerase ribozyme fitness, log enrichment relative to wild type (log ratio); higher = more active; in vitro selection for triplet polymerase activity", "summary_of_the_method": "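Streptavidin-bead capture of gel-excised extended constructs, followed by RT-PCR, closed a single triplicate in vitro selection round. That round began by annealing PCR-built, transcribed mutant libraries of each subunit of a heterodimeric triplet polymerase ribozyme with a biotinylated primer, the partner subunit and triplets, then incubating them frozen at −7 °C. After Illumina sequencing of inputs and outputs, genotypes needed ≥10 input reads and ≥1 read per output. Fitness is the base-2 logarithm of genotype enrichment over wild-type enrichment, using inverse-variance-weighted replicate averages.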", "values": [
      {"variant": "A37G C53A G63U U125A", "polymerase ribozyme fitness (log ratio)": -3.34},
      {"variant": "U38G C56U A91U U125G U126G G127U", "polymerase ribozyme fitness (log ratio)": -3.43},
      {"variant": "A37C C89U C115G", "polymerase ribozyme fitness (log ratio)": -3.26},
      {"variant": "A37C A43G", "polymerase ribozyme fitness (log ratio)": -2.56},
      {"variant": "A37G G61A C101A G127A", "polymerase ribozyme fitness (log ratio)": -1.91},
      {"variant": "A37C G48A A68G U96A", "polymerase ribozyme fitness (log ratio)": -3.13},
      {"variant": "A37U C101A C115U G127C", "polymerase ribozyme fitness (log ratio)": -4.26},
      {"variant": "A37U G117A", "polymerase ribozyme fitness (log ratio)": -1.4},
      {"variant": "A37U C70A U109A", "polymerase ribozyme fitness (log ratio)": -6.47},
      {"variant": "A37U C62G", "polymerase ribozyme fitness (log ratio)": -3.59},
      {"variant": "A37U C53G G63C U116A", "polymerase ribozyme fitness (log ratio)": -2.98},
      {"variant": "A37G G120A", "polymerase ribozyme fitness (log ratio)": 0.248},
      {"variant": "A37U A41G", "polymerase ribozyme fitness (log ratio)": -0.165},
      {"variant": "A37U C56G C72A", "polymerase ribozyme fitness (log ratio)": -2.62},
      {"variant": "U38G A50G U81C G113A", "polymerase ribozyme fitness (log ratio)": -1.89},
      {"variant": "A37U G117C G122U", "polymerase ribozyme fitness (log ratio)": -5.5},
      {"variant": "U38G C70U C80U G120C", "polymerase ribozyme fitness (log ratio)": -1.36},
      {"variant": "A37C C49A C76G G117A C123G U125A", "polymerase ribozyme fitness (log ratio)": -1.24},
      {"variant": "A37C G45U G51U C73U", "polymerase ribozyme fitness (log ratio)": -4.53},
      {"variant": "A37U G44A C101A A111G", "polymerase ribozyme fitness (log ratio)": -1.68},
      {"variant": "A37U A66C C76U", "polymerase ribozyme fitness (log ratio)": -2.83},
      {"variant": "U38C C101U", "polymerase ribozyme fitness (log ratio)": -1.08},
      {"variant": "A37U U130G", "polymerase ribozyme fitness (log ratio)": -1.28},
      {"variant": "A37U C49A U55C U112A", "polymerase ribozyme fitness (log ratio)": 0.525},
      {"variant": "G36U U125A", "polymerase ribozyme fitness (log ratio)": -1.4},
      {"variant": "U38C C53A G93C G122A C123U", "polymerase ribozyme fitness (log ratio)": -2.19},
      {"variant": "A37U G44A G122A U130C U131A G135U", "polymerase ribozyme fitness (log ratio)": -1.23},
      {"variant": "U38G G47C C62U C85A", "polymerase ribozyme fitness (log ratio)": -5.9},
      {"variant": "U38G C72G", "polymerase ribozyme fitness (log ratio)": -0.641},
      {"variant": "A37U C72A U106A G135U", "polymerase ribozyme fitness (log ratio)": -0.59},
      {"variant": "A37G G77A U130G", "polymerase ribozyme fitness (log ratio)": -1.16},
      {"variant": "U38G C70U U125G", "polymerase ribozyme fitness (log ratio)": -2.25},
      {"variant": "U38C G63U G77C U131G", "polymerase ribozyme fitness (log ratio)": -3.41},
      {"variant": "A37U G51A A100C U112A", "polymerase ribozyme fitness (log ratio)": -5.37},
      {"variant": "A37U U131A", "polymerase ribozyme fitness (log ratio)": -0.895},
      {"variant": "A37U A74U A121C", "polymerase ribozyme fitness (log ratio)": 1.55},
      {"variant": "U38G C124U", "polymerase ribozyme fitness (log ratio)": 0.564},
      {"variant": "U38G C49U", "polymerase ribozyme fitness (log ratio)": -2.12},
      {"variant": "G36U U130C", "polymerase ribozyme fitness (log ratio)": -0.893},
      {"variant": "A37U C82G G110C", "polymerase ribozyme fitness (log ratio)": -6.53},
      {"variant": "U38A U130C", "polymerase ribozyme fitness (log ratio)": -0.259},
      {"variant": "A37U G69U A118C", "polymerase ribozyme fitness (log ratio)": -2.82},
      {"variant": "A37G C62A C85U", "polymerase ribozyme fitness (log ratio)": -5.14},
      {"variant": "U38A C53G C56U G110A", "polymerase ribozyme fitness (log ratio)": -2.64},
      {"variant": "A37U C86A U112G G128A", "polymerase ribozyme fitness (log ratio)": -3.56},
      {"variant": "A37U C64U", "polymerase ribozyme fitness (log ratio)": -1.67},
      {"variant": "A37U G39U C104U", "polymerase ribozyme fitness (log ratio)": -1.36},
      {"variant": "A37U G69U", "polymerase ribozyme fitness (log ratio)": -0.0814},
      {"variant": "U38C C70A", "polymerase ribozyme fitness (log ratio)": -1.91},
      {"variant": "A37U U133G", "polymerase ribozyme fitness (log ratio)": -1.2},
      {"variant": "U38A C40U C70U C101U C123G", "polymerase ribozyme fitness (log ratio)": -1.32},
      {"variant": "U38G C53G", "polymerase ribozyme fitness (log ratio)": -1.52},
      {"variant": "U38A C49G G60U G61A U116C U125A", "polymerase ribozyme fitness (log ratio)": -4.75},
      {"variant": "U38A A50U C123G U133A", "polymerase ribozyme fitness (log ratio)": -0.425},
      {"variant": "A37C G45C A111G C124U", "polymerase ribozyme fitness (log ratio)": -2.52},
      {"variant": "U38G G45U G47A C73U", "polymerase ribozyme fitness (log ratio)": -5.77},
      {"variant": "U38G G57U C62A A91U C97A G117A G120C", "polymerase ribozyme fitness (log ratio)": -7.34},
      {"variant": "U38C C40U C56G U78A G113A", "polymerase ribozyme fitness (log ratio)": -3.17},
      {"variant": "A37G G63U U81A", "polymerase ribozyme fitness (log ratio)": -2.09},
      {"variant": "A37U G47C C56G C104A", "polymerase ribozyme fitness (log ratio)": -3.66},
      {"variant": "U38C A46G", "polymerase ribozyme fitness (log ratio)": -3.03},
      {"variant": "A37G C53A C73G A105G U109G U112A", "polymerase ribozyme fitness (log ratio)": -6.74},
      {"variant": "U38G A111C", "polymerase ribozyme fitness (log ratio)": -0.398},
      {"variant": "U38A G45A U129C", "polymerase ribozyme fitness (log ratio)": -2.96},
      {"variant": "A37U G60U", "polymerase ribozyme fitness (log ratio)": -1.39},
      {"variant": "G36U U59C U78C C101U C123A", "polymerase ribozyme fitness (log ratio)": -1.25},
      {"variant": "A37C C72G C123G", "polymerase ribozyme fitness (log ratio)": 0.506},
      {"variant": "A37U G52U C64U C123A C124A", "polymerase ribozyme fitness (log ratio)": 0.273},
      {"variant": "U38C G110U G135U", "polymerase ribozyme fitness (log ratio)": -3.96},
      {"variant": "U38A G57U G58U", "polymerase ribozyme fitness (log ratio)": -1.64},
      {"variant": "A37C A43C C53A G71C C86U A91C", "polymerase ribozyme fitness (log ratio)": -6.26},
      {"variant": "A37U C62U U96G", "polymerase ribozyme fitness (log ratio)": -0.183},
      {"variant": "A37U G48U G57U G60U U129C", "polymerase ribozyme fitness (log ratio)": -1.31},
      {"variant": "A37U A50G U54G", "polymerase ribozyme fitness (log ratio)": -0.818},
      {"variant": "A37U G52U C62A", "polymerase ribozyme fitness (log ratio)": -2.78},
      {"variant": "A37C G42A A43U C104A", "polymerase ribozyme fitness (log ratio)": -5.34},
      {"variant": "U38G A83C", "polymerase ribozyme fitness (log ratio)": -1.25},
      {"variant": "A37G U59C A103U G110C G122A", "polymerase ribozyme fitness (log ratio)": -6.29},
      {"variant": "A37U C101G G128C", "polymerase ribozyme fitness (log ratio)": -3.4},
      {"variant": "U38G C104A", "polymerase ribozyme fitness (log ratio)": -1.93},
      {"variant": "U38A G52U C62U U78G A90G", "polymerase ribozyme fitness (log ratio)": -2.07},
      {"variant": "A37C G63U", "polymerase ribozyme fitness (log ratio)": -1.28},
      {"variant": "A37G G71U C114A A119C", "polymerase ribozyme fitness (log ratio)": -5.35}
    ]}
  ]
}
